Measurements taken from patent publication US20070167369A1, “Novel use of isolated polypeptide comprising four FAS-1 domains, EM1 domain and RGD motif” (KYUNGPOOK NATIONAL UNIVERSITY INDUSTRY-ACADEMIC COOPERATION …, priority 2004, published 2007).

Assays:
HUVECs = experiment: Apoptosis by annexin V staining/FACS, endothelial cells (Example 7-1); type: cell-based, human; conditions: 48 hours
Protocol: Annexin V is a protein binding to calcium-dependent phospholipid, and known to have a strong affinity for phosphatidylserine such that apoptosis can be assayed. For this reason, the present inventors performed a test using an annexin V staining kit (Santa Cruz Biotechnology Inc.).
Each of human umbilical vein endothelial cells (HUVECs) and melanoma cells (B16F10) was suspended in medium at a density of 5×10^5 cells/ml, added to each well of […] and incubated at 37° C. overnight. On the next day, the cells were washed one time with PBS buffer, then added with serum-free medium and incubated at 37° C. for 24 hours. 0.2% FBS-containing fresh medium was treated with the fas-1 domain (βig-h3 D-IV) prepared in Example 1, at various concentrations, then added to each well of the plate and incubated at 37° C. for 48 hours. A negative control was added with PBS, a positive control was incubated with TNF-α or Vitamin C, which are known to induce the apoptosis of endothelial cells and melanoma cells. FITC (fluorescein isothiocyanate)-conjugated annexin V antibodies were added and allowed to react at 4° C. for one hour. After completion of the reaction, unbound annexin V antibodies were removed with PBS buffer, and the apoptosis of the cells was analyzed using FACS (BD Biosciences).

[1] = test system: blood vessels in Matrigel plugs; experiment: In vivo Matrigel plug assay (Example 9-2); set-up: species or system C57/BL6 mice
Protocol: An in vivo Matrigel plug assay was performed according to the method described by Maeshima, Y. et al., J. Biol. Chem., 275:23745-23750, 2000. 5-6 week old male C57/BL6 mice purchased from Hyochang scientific company, Korea, were used.
First, Matrigel (BD Biosciences, MA) was mixed with 20 units/ml heparin, 150 ng/ml bFGF (basic fibroblast growth factor, R&D system, International, Inc), and 5 μM or 10 μM of the fas-1 domain (pig-h3 D-IV). As a control was treated with PBS. The Matrigel mixture was injected subcutaneously to the C57/BL6 mice. After 7 days, the mice were sacrificed, and the Matrigel plugs were removed and fixed in 4% paraformaldehyde. The Matrigel plugs were embedded in paraffin, sectioned and stained with H&E. Their sections were examined by light microscope, the number of blood vessels from 4-6 HPF (high power fields; x200) was counted and averaged. Each group consisted of 3 or 4 Matrigel plugs.

[2] = test system: FAK-Raf-ERK/AKT signal transduction pathway; experiment: Western blot of phosphorylation of FAK-Raf-ERK/AKT pathway enzymes in HUVECs (Example 12); type: cell-based, human; conditions: 20 μM
Protocol: To examine the inhibitory mechanism of the fas-1 domain against endothelial cell proliferation and migration, the amount and activity of enzymes related to a FAK-Raf-ERK/AKT signal transduction pathway that is a typical signal transduction pathway in cells was determined by Western blot analysis on HUVECs treated with the fas-1 domain. Since the signal transduction-related proteins undergo phosphorylation during their activation process, the amount of phosphorylated proteins can be measured to predict their activity.
HUVECs were spread onto a 100-mm plate with 10% FBS-containing M199 medium, and incubated in an incubator at 37° C. for 12 hours. Following this, the culture medium was replaced with fresh medium containing 0.1% FBS and then further incubated for 24 hours. After removing the medium, the cells were washed one time with PBS buffer. The cells were detached from the plate by treatment with Trypsin-EDTA solution. The cells were suspended in 10% FBS-containing medium. Fas-1 protein was added to the cell suspension at final concentration of 20 μM. A control was added with PBS buffer. Thereafter, 3 ml of the cell mixture was taken and spread onto a plate coated with collagen. After 30 minutes, 60 minutes and 90 minutes, respectively, the medium was removed from the plate, and the cells were washed one time with PBS buffer. The cells were added with 200 μl of cell lysis buffer and left to stand on ice. The cell lysate was centrifuged at 12,000 rpm for 10 minutes at 4° C., and the supernatant containing a soluble protein was collected. Next, to quantify the concentration of the protein, a Bradford assay (BioRad, Hercules, Calif.) was performed using BSA as the standard protein. 30 μg of each of the sample proteins was electrophoresed on 10% SDS-polyacrylamide gel. The protein on the gel was transferred onto a nitrocellulose membrane, using electrophoresis. The protein transferred to the membrane was reacted with 5% skimmed milk for one hour to block nonspecific protein binding. Following this, it was reacted with the following various antibodies to signal transduction proteins: FAK (BD Science, Franklin Lakes, N.J., USA), pFAK (phosphorylated FAK; Santa Cruz Co., CA, USA), ERK (Sanca Cruz Co., CA, USA), pERK (phosphorylated ERK; Santa Cruz Co., CA, USA), AKT (Cell Signaling Technology Co., Beverly, Mass.), pAKT (phosphorylated AKT; Cell Signaling Technology Co., Beverly, Mass.), Raf1 (Santa Cruz Co., CA, USA) and pRaf1 (phosphorylated Raf1, Santa Cruz Co., CA, USA). The antibodies had been diluted in TBST (50 mM Tris-HCl, pH 7.6, 150 mM NaCl, 0.1% Tween 20) before use. The binding reaction with the antibodies was performed for at least 12 hours in a refrigeration condition. After completion of the reaction, the membrane was washed three times with TBST solution. Thereafter, the membrane was added with HRP-conjugated secondary antibodies (HRP-conjugated-anti-mouse IgG and HRP-conjugated-anti-rabbit IgG; Santa Cruz Co., CA, USA), and a binding reaction with the secondary antibodies was performed at room temperature for one hour. Next, the membrane was washed three times, and then added with 1 ml of ECL as chemiluminescent solution, so that sites where antigen-antibody reaction occurred were visualized by fluorescence. The membrane was exposed to an X-ray film.

[3] = collagen-coated plate, 30, 60, 90 minutes

B1: fas-1 domain: recombinant protein containing the fourth fas-1 domain of human βig-h3 (SEQ ID NO: 64) (protein, listed as Homo sapiens)
chain: MGTVMDVLKGDNRFSMLVAAIQSAGLTETLNREGVYTVFAPTNEAFRALPPRERSRLLGDAKELANILKYHIGDEILVSGGIGALVRLKSLQGDKLEVSLKNNVVSVNKEPVAEPDIMATNGVVHVITNVL
induction of apoptosis of HUVECs (HUVECs): induced the apoptosis of HUVECs in a dose-dependent manner | in vivo angiogenesis inhibitory effect compared with YH motif-containing peptide fragment of 18 amino acids ([1]; 5 μM fas-1 domain vs 500 μM YH peptide): significantly higher | number of blood vessels in Matrigel plug ([1]; 5 μM in Matrigel, subcutaneous, 7 days): significantly smaller than that in the control | angiogenesis in Matrigel plug ([1]; 10 μM in Matrigel, subcutaneous, 7 days): perfectly inhibited | absolute amounts of FAK, Raf1, ERK and AKT enzymes in the cells vs control [2]: not significantly different | phosphorylation of AKT [2, 3]: greatly reduced as compared to that of the control | phosphorylation of ERK [2, 3]: no increase in phosphorylation until 90 minutes | phosphorylation of FAK [2, 3]: reduced as compared to the control | phosphorylation of Raf1 [2, 3]: greatly reduced as compared to that of the control
